Results from the RNAGym collection of RNA variant scans (doi:10.1093/molbev/msab373).

B1: Azoarcus group I ribozyme (parent)
chain: GUGCCUUGCGCCGGGAAACCACGCAAGGGAUGGUGUCAAAUUCGGCGAAACCUAAGCGCCCGCCCGGGCGUAUGGCAACGCCGAGCCAAGCUUCGGCGCCUGCGCCGAUGAAGGUGUAGAGACUAGACGGCACCCACCUAAGGCAAACGCUAUGGUGAAGGCAUAGUCCAGGGAGUGGCGAAAGUCACACAAACCGG

Variants of: B1
Assay: reverse-splicing fitness (ratio to wild type); higher = more active; in vitro selection; Mg2+ level not given
How it was run: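 An in vitro group I ribozyme library with randomized positions was T7-transcribed and gel-purified. In triplicate, 10 pmol RNA in EPPS pH 7.5 was reacted with 50 pmoles of a 30-nt RNA substrate for 1 h at 37 °C across several added MgCl2 levels (1–48 mM), then stopped with EDTA. Products were reverse transcribed from a substrate-complementary primer, PCR-amplified and sequenced (HiSeq 4000). Fitness is a variant's read proportion after selection over that before, normalised to wild type.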

| Variant | reverse-splicing fitness |
| --- | --- |
| GUGCCUUGCGCCGGGAAACCACGCAAGGGAUGGUGUCAAAUUCGGCGAAACCUAAGCGCCCGCCCGGGCGUAUGGCAACGCAGAGCCAAGCUUCGGCGCCUGCGCCGAUGCAGGUGUAGUGACUAGACGGCACCCACCUAAGGCAAACGUUAUGGUGAAGGCAUAGUCUAGGGAGAGGCGAAAGUCACACAAACCGG | 0.00738 |
| GUGCCUUGCGCCGGGAAACCACGCAAGGGAUGGUGUCAAAUUCGGCGAAACCUAAGCGCCCGCCCGGGCGUAUGGCAACGCAGAGCCAAGCUUCGGCGCCUGCGCCGAUGCAGGUGUAGUGACUAGACGGCACCCACCUAAGGCAAACGUUAUGGUGAAGGCAUAGUCUAGGGAGGGGCGAAAGUCACACAAACCGG | 0.0027 |
| GUGCCUUGCGCCGGGAAACCACGCAAGGGAUGGUGUCAAAUUCGGCGAAACCUAAGCGCCCGCCCGGGCGUAUGGCAACGCAGAGCCAAGCUUCGGCGCCUGCGCCGAUGCAGGUGUAGUGACUAGACGGCACCCACCUAAGGCAAACGUUAUGGUGAAGGCAUAGUCUAGGGAGCGGCGAAAGUCACACAAACCGG | 0.00534 |
| GUGCCUUGCGCCGGGAAACCACGCAAGGGAUGGUGUCAAAUUCGGCGAAACCUAAGCGCCCGCCCGGGCGUAUGGCAACGCAGAGCCAAGCUUCGGCGCCUGCGCCGAUGCAGGUGUAGUGACUAGACGGCACCCACCUAAGGCAAACGUUAUGGUGAAGGCAUAGUCCAGGGAGUGGCGAAAGUCACACAAACCGG | 0.0167 |
| GUGCCUUGCGCCGGGAAACCACGCAAGGGAUGGUGUCAAAUUCGGCGAAACCUAAGCGCCCGCCCGGGCGUAUGGCAACGCAGAGCCAAGCUUCGGCGCCUGCGCCGAUGCAGGUGUAGUGACUAGACGGCACCCACCUAAGGCAAACGGUAUGGUGAAGGCAUAGUCUAGGGAGGGGCGAAAGUCACACAAACCGG | 0.00331 |
| GUGCCUUGCGCCGGGAAACCACGCAAGGGAUGGUGUCAAAUUCGGCGAAACCUAAGCGCCCGCCCGGGCGUAUGGCAACGCAGAGCCAAGCUUCGGCGCCUGCGCCGAUGCAGGUGUAGUGACUAGACGGCACCCACCUAAGGCAAACGGUAUGGUGAAGGCAUAGUCUAGGGAGCGGCGAAAGUCACACAAACCGG | 0.00486 |
| GUGCCUUGCGCCGGGAAACCACGCAAGGGAUGGUGUCAAAUUCGGCGAAACCUAAGCGCCCGCCCGGGCGUAUGGCAACGCAGAGCCAAGCUUCGGCGCCUGCGCCGAUGCAGGUGUAGUGACUAGACGGCACCCACCUAAGGCAAACGGUAUGGUGAAGGCAUAGUCUAGGGAGAGGCGAAAGUCACACAAACCGG | 0.00407 |
| GUGCCUUGCGCCGGGAAACCACGCAAGGGAUGGUGUCAAAUUCGGCGAAACCUAAGCGCCCGCCCGGGCGUAUGGCAACGCAGAGCCAAGCUUCGGCGCCUGCGCCGAUGCAGGUGUAGUGACUAGACGGCACCCACCUAAGGCAAACGGUAUGGUGAAGGCAUAGUCCAGGGAGGGGCGAAAGUCACACAAACCGG | 0.00249 |
| GUGCCUUGCGCCGGGAAACCACGCAAGGGAUGGUGUCAAAUUCGGCGAAACCUAAGCGCCCGCCCGGGCGUAUGGCAACGCAGAGCCAAGCUUCGGCGCCUGCGCCGAUGCAGGUGUAGUGACUAGACGGCACCCACCUAAGGCAAACGGUAUGGUGAAGGCAUAGUCCAGGGAGCGGCGAAAGUCACACAAACCGG | 0.00623 |
| GUGCCUUGCGCCGGGAAACCACGCAAGGGAUGGUGUCAAAUUCGGCGAAACCUAAGCGCCCGCCCGGGCGUAUGGCAACGCAGAGCCAAGCUUCGGCGCCUGCGCCGAUGCAGGUGUAGUGACUAGACGGCACCCACCUAAGGCAAACGGUAUGGUGAAGGCAUAGUCCAGGGAGAGGCGAAAGUCACACAAACCGG | 0.00392 |
| GUGCCUUGCGCCGGGAAACCACGCAAGGGAUGGUGUCAAAUUCGGCGAAACCUAAGCGCCCGCCCGGGCGUAUGGCAACGCAGAGCCAAGCUUCGGCGCCUGCGCCGAUGCAGGUGUAGUGACUAGACGGCACCCACCUAAGGCAAACGGUAUGGUGAAGGCAUAGUCGAGGGAGUGGCGAAAGUCACACAAACCGG | 0.0061 |
| GUGCCUUGCGCCGGGAAACCACGCAAGGGAUGGUGUCAAAUUCGGCGAAACCUAAGCGCCCGCCCGGGCGUAUGGCAACGCAGAGCCAAGCUUCGGCGCCUGCGCCGAUGCAGGUGUAGUGACUAGACGGCACCCACCUAAGGCAAACGGUAUGGUGAAGGCAUAGUCUAGGGAGUGGCGAAAGUCACACAAACCGG | 0.00639 |
| GUGCCUUGCGCCGGGAAACCACGCAAGGGAUGGUGUCAAAUUCGGCGAAACCUAAGCGCCCGCCCGGGCGUAUGGCAACGCAGAGCCAAGCUUCGGCGCCUGCGCCGAUGCAGGUGUAGUGACUAGACGGCACCCACCUAAGGCAAACGCUAUGGUGAAGGCAUAGUCAAGGGAGCGGCGAAAGUCACACAAACCGG | 0.0037 |
| GUGCCUUGCGCCGGGAAACCACGCAAGGGAUGGUGUCAAAUUCGGCGAAACCUAAGCGCCCGCCCGGGCGUAUGGCAACGCAGAGCCAAGCUUCGGCGCCUGCGCCGAUGCAGGUGUAGUGACUAGACGGCACCCACCUAAGGCAAACGCUAUGGUGAAGGCAUAGUCAAGGGAGAGGCGAAAGUCACACAAACCGG | 0.00417 |
| GUGCCUUGCGCCGGGAAACCACGCAAGGGAUGGUGUCAAAUUCGGCGAAACCUAAGCGCCCGCCCGGGCGUAUGGCAACGCAGAGCCAAGCUUCGGCGCCUGCGCCGAUGCAGGUGUAGUGACUAGACGGCACCCACCUAAGGCAAACGCUAUGGUGAAGGCAUAGUCAAGGGAGUGGCGAAAGUCACACAAACCGG | 0.0037 |
| GUGCCUUGCGCCGGGAAACCACGCAAGGGAUGGUGUCAAAUUCGGCGAAACCUAAGCGCCCGCCCGGGCGUAUGGCAACGCAGAGCCAAGCUUCGGCGCCUGCGCCGAUGCAGGUGUAGUGACUAGACGGCACCCACCUAAGGCAAACGGUAUGGUGAAGGCAUAGUCGAGGGAGCGGCGAAAGUCACACAAACCGG | 0.00343 |
| GUGCCUUGCGCCGGGAAACCACGCAAGGGAUGGUGUCAAAUUCGGCGAAACCUAAGCGCCCGCCCGGGCGUAUGGCAACGCAGAGCCAAGCUUCGGCGCCUGCGCCGAUGCAGGUGUAGUGACUAGACGGCACCCACCUAAGGCAAACGGUAUGGUGAAGGCAUAGUCGAGGGAGAGGCGAAAGUCACACAAACCGG | 0.00439 |
| GUGCCUUGCGCCGGGAAACCACGCAAGGGAUGGUGUCAAAUUCGGCGAAACCUAAGCGCCCGCCCGGGCGUAUGGCAACGCAGAGCCAAGCUUCGGCGCCUGCGCCGAUGCAGGUGUAGUGACUAGACGGCACCCACCUAAGGCAAACGGUAUGGUGAAGGCAUAGUCGAGGGAGGGGCGAAAGUCACACAAACCGG | 0.00279 |
| GUGCCUUGCGCCGGGAAACCACGCAAGGGAUGGUGUCAAAUUCGGCGAAACCUAAGCGCCCGCCCGGGCGUAUGGCAACGCAGAGCCAAGCUUCGGCGCCUGCGCCGAUGCAGGUGUAGUGACUAGACGGCACCCACCUAAGGCAAACGUUAUGGUGAAGGCAUAGUCGAGGGAGAGGCGAAAGUCACACAAACCGG | 0.00669 |
| GUGCCUUGCGCCGGGAAACCACGCAAGGGAUGGUGUCAAAUUCGGCGAAACCUAAGCGCCCGCCCGGGCGUAUGGCAACGCAGAGCCAAGCUUCGGCGCCUGCGCCGAUGCAGGUGUAGUGACUAGACGGCACCCACCUAAGGCAAACGUUAUGGUGAAGGCAUAGUCGAGGGAGCGGCGAAAGUCACACAAACCGG | 0.00483 |
| GUGCCUUGCGCCGGGAAACCACGCAAGGGAUGGUGUCAAAUUCGGCGAAACCUAAGCGCCCGCCCGGGCGUAUGGCAACGCAGAGCCAAGCUUCGGCGCCUGCGCCGAUGCAGGUGUAGUGACUAGACGGCACCCACCUAAGGCAAACGUUAUGGUGAAGGCAUAGUCGAGGGAGGGGCGAAAGUCACACAAACCGG | 0.00288 |
| GUGCCUUGCGCCGGGAAACCACGCAAGGGAUGGUGUCAAAUUCGGCGAAACCUAAGCGCCCGCCCGGGCGUAUGGCAACGCAGAGCCAAGCUUCGGCGCCUGCGCCGAUGCAGGUGUAGUGACUAGACGGCACCCACCUAAGGCAAACGUUAUGGUGAAGGCAUAGUCUAGGGAGUGGCGAAAGUCACACAAACCGG | 0.00638 |
| GUGCCUUGCGCCGGGAAACCACGCAAGGGAUGGUGUCAAAUUCGGCGAAACCUAAGCGCCCGCCCGGGCGUAUGGCAACGCAGAGCCAAGCUUCGGCGCCUGCGCCGAUGCAGGUGUAGUGACUAGACGGCACCCACCUAAGGCAAACGUUAUGGUGAAGGCAUAGUCAAGGGAGUGGCGAAAGUCACACAAACCGG | 0.0052 |
| GUGCCUUGCGCCGGGAAACCACGCAAGGGAUGGUGUCAAAUUCGGCGAAACCUAAGCGCCCGCCCGGGCGUAUGGCAACGCAGAGCCAAGCUUCGGCGCCUGCGCCGAUGCAGGUGUAGUGACUAGACGGCACCCACCUAAGGCAAACGUUAUGGUGAAGGCAUAGUCGAGGGAGUGGCGAAAGUCACACAAACCGG | 0.00537 |
| GUGCCUUGCGCCGGGAAACCACGCAAGGGAUGGUGUCAAAUUCGGCGAAACCUAAGCGCCCGCCCGGGCGUAUGGCAACGCAGAGCCAAGCUUCGGCGCCUGCGCCGAUGCAGGUGUAGUGACUAGACGGCACCCACCUAAGGCAAACGUUAUGGUGAAGGCAUAGUCAAGGGAGCGGCGAAAGUCACACAAACCGG | 0.00323 |
| GUGCCUUGCGCCGGGAAACCACGCAAGGGAUGGUGUCAAAUUCGGCGAAACCUAAGCGCCCGCCCGGGCGUAUGGCAACGCAGAGCCAAGCUUCGGCGCCUGCGCCGAUGCAGGUGUAGUGACUAGACGGCACCCACCUAAGGCAAACGUUAUGGUGAAGGCAUAGUCAAGGGAGGGGCGAAAGUCACACAAACCGG | 0.00324 |
| GUGCCUUGCGCCGGGAAACCACGCAAGGGAUGGUGUCAAAUUCGGCGAAACCUAAGCGCCCGCCCGGGCGUAUGGCAACGCAGAGCCAAGCUUCGGCGCCUGCGCCGAUGCAGGUGUAGUGACUAGACGGCACCCACCUAAGGCAAACGUUAUGGUGAAGGCAUAGUCAAGGGAGAGGCGAAAGUCACACAAACCGG | 0.00537 |
| GUGCCUUGCGCCGGGAAACCACGCAAGGGAUGGUGUCAAAUUCGGCGAAACCUAAGCGCCCGCCCGGGCGUAUGGCAACGCAGAGCCAAGCUUCGGCGCCUGCGCCGAUGCAGGUGUAGUGACUAGACGGCACCCACCUAAGGCAAACGUUAUGGUGAAGGCAUAGUCCAGGGAGCGGCGAAAGUCACACAAACCGG | 0.0107 |
| GUGCCUUGCGCCGGGAAACCACGCAAGGGAUGGUGUCAAAUUCGGCGAAACCUAAGCGCCCGCCCGGGCGUAUGGCAACGCAGAGCCAAGCUUCGGCGCCUGCGCCGAUGCAGGUGUAGUGACUAGACGGCACCCACCUAAGGCAAACGUUAUGGUGAAGGCAUAGUCCAGGGAGGGGCGAAAGUCACACAAACCGG | 0.00381 |
| GUGCCUUGCGCCGGGAAACCACGCAAGGGAUGGUGUCAAAUUCGGCGAAACCUAAGCGCCCGCCCGGGCGUAUGGCAACGCAGAGCCAAGCUUCGGCGCCUGCGCCGAUGCAGGUGUAGUGACUAGACGGCACCCACCUAAGGCAAACGUUAUGGUGAAGGCAUAGUCCAGGGAGAGGCGAAAGUCACACAAACCGG | 0.00771 |
